According to doi:10.1101/2023.03.06.531322:

Molecular target: TafA (HAH_0240), mature major subunit of tat-fimbriae (tafi) of Haloarcula hispanica (Haloarcula hispanica)
Experiment: co-sedimentation

| molar ratio in filament preparations (molecules per 100 molecules of TafA) | Substance |
| --- | --- |
| 5 | TafE (HAH_0239), minor component of tafi of Haloarcula hispanica (natural protein) |
| 1 | TafC (HAH_0242), minor component of tafi of Haloarcula hispanica (natural protein) |
